Measurements: the domain aggregation screens of Martell et al. (2025)

Assay: soluble fraction after stress (log2 fold change); higher = more stays soluble; pooled small domains, quantitative proteomics
Settings: stress: pH 4
Method in brief: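 Pooled custom libraries of small protein domains were stressed at pH 4 and then measured by high-throughput quantitative proteomics. The fold change in the amount of each domain that stays soluble after the acid stress serves as a measure of aggregation propensity. Fold changes are given on a log2 scale, and higher values mean more of the domain stayed soluble.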

Row | Sequence | soluble fraction (log2)
1 | HMNPLHYKAAHWVREGLFDDLKSFVELETRINSIFEEKDRGDVFEIFIEGYRSFSKWRALVLRLA | -0.44
2 | HMGEAIPVPDIRHKSQADAERLLQDQGLAMMVTDTGYVKTLPANYILEQIPVAGEKVKSGHVVYVIINSG | 0.0317
3 | HMDKEKLQEKLLQIFEAEPQKKFQVQDLVKVLDMEGAGQFKFVVQALADLEHNKQIKLSEDDTFSLIVKE | 0.22
4 | HMGSEGVKVEDTIGMSEAEATATLGKSGFVVNKTESHDPYIKAGNVITQSPAAGSKAPKGTTVTLTISLGP | 0.423
5 | HMDTSKIDYSEFITMLDKGEVESVVLKSDTLTVTLKHGTGMAAQTKTVTLMEDLSELTKRLEKAGVKSFDK | 0.176
6 | HMLSVRQRMGELLERLADGQFHRFESLFTVEEGKLGVVVTFLGLLTLAKEQLLDIVQEGPTAPIYVKSLA | 0.0784
7 | HMGRRERKKLQSRRAIIEAAVTEFKEKGFREASVADIMTRADLGLGTFYNYFQSKEDILMSLLS | -0.0713
8 | HMTSAIAEGTVIRLTQSTNIRESMSEDAPKVATAFSGEKVTVIMSYAEGWTKVTYGDKTGYIKTELL | -0.443
9 | HMSSESIKTDKNVGVGSTLEELEKAYGSDYTLSGKMYRYYQDDNSKYMYFFILNDVVQYYGYGIDV | -1.38
10 | HMKNLTERQQRIIALISENPQTTRAEIAGAIGVATKTIERELTTLSNIVYYVGPKKGGHWEIIK | 0.333
11 | HMKGPLKDLGPDPVTGKSILVKDGKFGTYVTDGETNATLRRGDIVELLTLERGMELLAEKRARATQ | -0.0516
12 | HMVWMIEKDQSVILVNKLERIQVEALGKALENGNFGDRIRVINNKSGQKLLGIVESEKKIQIISKI | -0.077
13 | HMINLNEVLANFQKSYPNLAGFKYDQGMDALVYEGNYIRLNGYMLSRINPTLFSMSPDDIFTYLKNGF | -1.22
14 | HMIESVMVGIKELLGDTIDQKYEKYIRLGGIPSDEVDEFNSVFSAYEKVNGNHNGKKKYDYVMNNLPIIPV | -1.54
15 | HMISSKDIINDEDGARLGKIADVEIDVATGKILSVHVYRSFKLLHLFGNKDVVQIPWNKIMKIGSDVVIVE | -0.198
16 | HMNVDLLEARIPIQSHGMRLDQVVAELFPDYSRNRLAAWIKEGRLTVDGKTMKPRDRALASAHVVLEVV | -0.197
17 | HMEEPFRIEKKGDIYYISGKTVERLVAMTDLDNDSAVKRLQRTLKRMGVEDALREHGINPGDTVVIGNYEF | 0.04
18 | HMEPDEYTVRQAFMKFDVGGEGRVPRDKLKALLETLGLELSAQQVRESEEQLDPEGTGFTSYGDFLMWWN | -1.33
19 | HMDIKDRSGVTIDESNEAQQESIIRESWAEQKISGNVDNYIAYLKANGMLLETAKIELAALQEKDASLRE | -0.78
20 | HMDPSWVPVFNNLRDAILSHQLLPGTRLAEDELSNIYGLGRTVIRSALGALTHEGLLTHIPNRGVHVAKP | -0.585
21 | HMSMRIDTNTLNYYVQNAQISLSVLRTKINNLDQFLSGEKQPTFNQLSEIAKKINVPTGLLLLNKS | -0.698
22 | HMDLGLTDDQRLVYGLLSPTVPRSSGELLGMVDFGRSKLSRILKELIELGQVFTVGVGRGLKYKRG | -0.256
23 | HMETGFADTLRKFRKEADMTQEKLAEALGVTTGAVYKWENGRSTPEVRLLVEMADLFGTSVDALLDYKVR | -0.723
24 | HMVAGHLQEKNGYFYIVLNYTNHEGKRKSKWITTGLTVKGNKKRAQDLLQEARKTFVPDIPT | 0.22
25 | HMGTDIGADKAAQTALADAGLSSSQVTGLRTKQDWDDGQLRYEVEFRAGGVEYDYELAADGTILKADRDT | 0.254
26 | HMENEIVMPVQINGKKRGDLTIARDADQASIQKAVLELDFVKAALNGGSPKKVIVVPQRIVNVV | 0.127
27 | HMKDITAVISKKKGRDYYYIIVSYHLSNGKRVQKWIKTEFSVNGNNKRKLEQKRIEILQEWQNKLV | -0.0977
28 | HMANGTVKWFNTTKGFGFIAPETGGKDVFVHISAVERSGLTGLADDQKVTFDVEAGRDGRESAVNLAL | -0.613
29 | HMTYVSVSNYIGTNVDKAKGELESQGLVVLLEEQKTEDKSQDGMVLKQTIEGGTKVSSGSRITLIYGRYT | -0.117
30 | HMPASTSIPYSDFISRVESGDVQEAKIGESAITGTYKDGSQFKTVKPPTLDTNLMPTLIQNKVNVVGVEP | 0.0215
